Data from article PMC9043842 (RSC Advances, 2021).
Numbering of substitutions follows the chain as printed. In names and notes the source's numbering stands. Like-named read-outs stand apart in the source and are kept apart here.

B1: G80A/H81A (K3A2H) horse myoglobin (natural protein)
chain: GLSDGEWQQVLNVWGKVEADIAGHGQEVLIRLFTGHPETLEKFDKFKHLKTEAEMKASEDLKKHGTVVLTALGGILKKKAAHEAELKPLAQSHATKHKIPIKYLEFISDAIIHVLHSKHPGDFGADAQGAMTKALELFRNDIAAKYKELGFQG
B2: G80A/H81A/L137D (K3A2H-L137D) horse myoglobin (natural protein)
chain: B1 chain with L137D
B3: G80A/H81A/L137E (K3A2H-L137E) horse myoglobin (natural protein)
chain: B1 chain with L137E

Legend:
Assay in all cases: SEC
SEC [1] = target: the molecule itself
SEC [2] = target: the molecule itself; remark: listed apart in the source
SEC [3] = target: the molecule itself; remark: listed apart in the source

Row | Protein | dimer-to-monomer ratio after heating (SEC [1]) [%] | Ka (SEC [2]) [M⁻¹] | dH (SEC [2]) [kcal/mol] | Ka (SEC [3]) [M⁻¹] | dH (SEC [3]) [kcal/mol]
1 | B1 | 92 | 920000 | -30.8 ± 1.1 | – | –
2 | B2 | 98 | – | – | 2.3e+07 | -100 ± 4
3 | B3 | 97 | – | – | 9.4e+06 | -63.2 ± 5.1
